For experiment [1], the target named is T1, Histidine-tagged recombinant human FcγRI (CD64) (human, UniProt P12314 16-288, limits assumed).
T1 construct: bought
Put plainly: SPR, His-FcγRI captured; Expt 2.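 Further: biacore T200 SPR at 25 °C, Fc-variant antibodies at 100 µg/mL flowed 1 min over anti-His-captured receptor, signal read near injection end minus third buffer blank; antibody analyte injected at 100 µg/mL for 1 min.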
Procedure: (§1) Binding analysis was carried out by surface plasmon resonance at 25° C. using a Biacore® T200 instrument with Biacore® T200 control software. The sample compartment was held at 5° C. The running buffer (HBS-EP+) consisted of 0.01 M HEPES pH 7.4, containing 0.15 M NaCl, 3 mM EDTA, and 0.05% v/v Surfactant P20. Methods were run using the manufacturer's standard method wizards as described in the Biacore® T200 Instrument Handbook.
(§2) The cell was activated by treatment with EDC/NHS for 7 min. The antibody was diluted to 10 μg/mL in 10 mM sodium acetate pH 5.0 and injected for 7 min at 5 μL/min. The flow cell was deactivated by injection of 1M ethanolamine for 7 min. This process was repeated in the absence of anti-his antibody on a separate flow cell to generate a reference surface. […] Samples of purified antibodies comprising variant Fc regions (1 mg/mL in PBS) were diluted with running buffer to 100 μg/mL and were injected for 1 min at 30 μL/min and allowed to disassociate for 2 min. Between each cycle, the chip was regenerated by injection of 10 mM glycine pH 3.0 for 0.5 min at a flow rate of 30 μL/min and recharged with a fresh injection of FcγRI. At the beginning of each experiment, three blank cycles were run, with buffer alone being injected instead of test sample. The average SPR signal (relative to the reference cell) was measured in a window approximately 8 to 13 seconds before the injection of test sample (baseline) and approximately 3 to 8 seconds before the end of injection (response). The response of the third of the blank (buffer) samples was subtracted from the response of each test sample in order to allow for any dissociation of the bound FcγRI giving a corrected response for each test sample. The whole experiment was repeated three times with the test samples being analysed in different orders each time.

The target of experiment [2] is T1, Histidine-tagged recombinant human …. Put plainly: SPR, His-FcγRI captured; Expt 1.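 Further: SPR at 25 °C on anti-His antibody chip capturing FcγRI, Fc-variant antibodies injected at 100 µg/mL for 1 min, signal near end of injection minus buffer blank.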 On the technique in general: Surface plasmon resonance follows binding to a sensor surface in real time, without labels.
Procedure: as §1, §2
Experiment [3] shares this target. Put plainly: SPR, His-FcγRI captured; mean.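 Further: biacore T200 SPR at 25 °C, anti-His surface capturing FcγRI, Fc-variant antibodies injected at 100 µg/mL for 1 min, signal near injection end minus third buffer blank, three repeats.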
Procedure: as §1, §2
Experiment [4] shares this target. Put plainly: SPR, His-FcγRI captured; Expt 3.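 Further: biacore T200 SPR at 25 °C, Fc-variant antibodies at 100 µg/mL flowed 1 min over anti-His-captured FcγRI, signal taken just before injection end minus a buffer blank cycle; antibody analyte injected at 100 µg/mL for 1 min.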

B1: anti-CD20 human IgG1 L234E/L235I/G236R (antibody)
heavy: QVQLQQPGAELVKPGASVKMSCKASGYTFTSYNMHWVKQTPGRGLEWIGAIYPGNGDTSYNQKFKGKATLTADKSSSTAYMQLSSLTSEDSAVYYCARSTYYGGDWYFNVWGAGTTVTVSSASTKGPSVFPLAPSSKSTSGGTAALGCLVKDYFPEPVTVSWNSGALTSGVHTFPAVLQSSGLYSLSSVVTVPSSSLGTQTYICNVNHKPSNTKVDKKVEPKSCDKTHTCPPCPAPEEIRGPSVFLFPPKPKDTLMISRTPEVTCVVVDVSHEDPEVKFNWYVDGVEVHNAKTKPREEQYNSTYRVVSVLTVLHQDWLNGKEYKCKVSNKALPAPIEKTISKAKGQPREPQVYTLPPSRDELTKNQVSLTCLVKGFYPSDIAVEWESNGQPENNYKTTPPVLDSDGSFFLYSKLTVDKSRWQQGNVFSCSVMHEALHNHYTQKSLSLSPGK
light: QIVLSQSPAILSASPGEKVTMTCRASSSVSYIHWFQQKPGSSPKPWIYATSNLASGVPVRFSGSGSGTSYSLTISRVEAEDAATYYCQQWTSNPPTFGGGTKLEIKRTVAAPSVFIFPPSDEQLKSGTASVVCLLNNFYPREAKVQWKVDNALQSGNSQESVTEQDSKDSTYSLSSTLTLSKADYEKHKVYACEVTHQGLSSPVTKSFNRGEC
notes: also called 2-14; 1-37
As to B1, the “Corrected response (RU)” value in experiment [1] is 8.1 RU; in experiment [2], 11.6 RU; in experiment [4] it was 11.7 RU. Also, the “Corrected response (RU), Mean” value in experiment [3] turned out to be 10.4 RU.

B2: anti-CD20 human IgG1 L234K/L235T/G236R (antibody)
heavy: QVQLQQPGAELVKPGASVKMSCKASGYTFTSYNMHWVKQTPGRGLEWIGAIYPGNGDTSYNQKFKGKATLTADKSSSTAYMQLSSLTSEDSAVYYCARSTYYGGDWYFNVWGAGTTVTVSSASTKGPSVFPLAPSSKSTSGGTAALGCLVKDYFPEPVTVSWNSGALTSGVHTFPAVLQSSGLYSLSSVVTVPSSSLGTQTYICNVNHKPSNTKVDKKVEPKSCDKTHTCPPCPAPEKTRGPSVFLFPPKPKDTLMISRTPEVTCVVVDVSHEDPEVKFNWYVDGVEVHNAKTKPREEQYNSTYRVVSVLTVLHQDWLNGKEYKCKVSNKALPAPIEKTISKAKGQPREPQVYTLPPSRDELTKNQVSLTCLVKGFYPSDIAVEWESNGQPENNYKTTPPVLDSDGSFFLYSKLTVDKSRWQQGNVFSCSVMHEALHNHYTQKSLSLSPGK
light: QIVLSQSPAILSASPGEKVTMTCRASSSVSYIHWFQQKPGSSPKPWIYATSNLASGVPVRFSGSGSGTSYSLTISRVEAEDAATYYCQQWTSNPPTFGGGTKLEIKRTVAAPSVFIFPPSDEQLKSGTASVVCLLNNFYPREAKVQWKVDNALQSGNSQESVTEQDSKDSTYSLSSTLTLSKADYEKHKVYACEVTHQGLSSPVTKSFNRGEC
notes: also called 2-25; 1-90
As to B2, the “Corrected response (RU)” value in experiment [1] is -1 RU; in experiment [2] it was -1.8 RU; in experiment [4], 1.1 RU. Further, the “Corrected response (RU), Mean” value in experiment [3] is -0.6 RU.

B3: anti-CD20 human IgG1 L234Q/L235D/G236R (antibody)
heavy: QVQLQQPGAELVKPGASVKMSCKASGYTFTSYNMHWVKQTPGRGLEWIGAIYPGNGDTSYNQKFKGKATLTADKSSSTAYMQLSSLTSEDSAVYYCARSTYYGGDWYFNVWGAGTTVTVSSASTKGPSVFPLAPSSKSTSGGTAALGCLVKDYFPEPVTVSWNSGALTSGVHTFPAVLQSSGLYSLSSVVTVPSSSLGTQTYICNVNHKPSNTKVDKKVEPKSCDKTHTCPPCPAPEQDRGPSVFLFPPKPKDTLMISRTPEVTCVVVDVSHEDPEVKFNWYVDGVEVHNAKTKPREEQYNSTYRVVSVLTVLHQDWLNGKEYKCKVSNKALPAPIEKTISKAKGQPREPQVYTLPPSRDELTKNQVSLTCLVKGFYPSDIAVEWESNGQPENNYKTTPPVLDSDGSFFLYSKLTVDKSRWQQGNVFSCSVMHEALHNHYTQKSLSLSPGK
light: QIVLSQSPAILSASPGEKVTMTCRASSSVSYIHWFQQKPGSSPKPWIYATSNLASGVPVRFSGSGSGTSYSLTISRVEAEDAATYYCQQWTSNPPTFGGGTKLEIKRTVAAPSVFIFPPSDEQLKSGTASVVCLLNNFYPREAKVQWKVDNALQSGNSQESVTEQDSKDSTYSLSSTLTLSKADYEKHKVYACEVTHQGLSSPVTKSFNRGEC
notes: also called 2-28
For the molecule B3, the “Corrected response (RU)” value was found to be 2.7 RU in experiment [1], 4.3 RU in experiment [2] and 4.4 RU in experiment [4]. The “Corrected response (RU), Mean” value in experiment [3] is 3.8 RU.

B4: anti-CD20 human IgG1 L234G/L235Q/G236R (antibody)
heavy: QVQLQQPGAELVKPGASVKMSCKASGYTFTSYNMHWVKQTPGRGLEWIGAIYPGNGDTSYNQKFKGKATLTADKSSSTAYMQLSSLTSEDSAVYYCARSTYYGGDWYFNVWGAGTTVTVSSASTKGPSVFPLAPSSKSTSGGTAALGCLVKDYFPEPVTVSWNSGALTSGVHTFPAVLQSSGLYSLSSVVTVPSSSLGTQTYICNVNHKPSNTKVDKKVEPKSCDKTHTCPPCPAPEGQRGPSVFLFPPKPKDTLMISRTPEVTCVVVDVSHEDPEVKFNWYVDGVEVHNAKTKPREEQYNSTYRVVSVLTVLHQDWLNGKEYKCKVSNKALPAPIEKTISKAKGQPREPQVYTLPPSRDELTKNQVSLTCLVKGFYPSDIAVEWESNGQPENNYKTTPPVLDSDGSFFLYSKLTVDKSRWQQGNVFSCSVMHEALHNHYTQKSLSLSPGK
light: QIVLSQSPAILSASPGEKVTMTCRASSSVSYIHWFQQKPGSSPKPWIYATSNLASGVPVRFSGSGSGTSYSLTISRVEAEDAATYYCQQWTSNPPTFGGGTKLEIKRTVAAPSVFIFPPSDEQLKSGTASVVCLLNNFYPREAKVQWKVDNALQSGNSQESVTEQDSKDSTYSLSSTLTLSKADYEKHKVYACEVTHQGLSSPVTKSFNRGEC
notes: also called 2-18; 1-57
As for B4, the “Corrected response (RU)” value was 5.2 RU in experiment [1], 4.4 RU in experiment [2] and 6.1 RU in experiment [4]. The “Corrected response (RU), Mean” value in experiment [3] worked out at 5.3 RU.

B5: anti-CD20 human IgG1 L234H/L235I/G236R (antibody)
heavy: QVQLQQPGAELVKPGASVKMSCKASGYTFTSYNMHWVKQTPGRGLEWIGAIYPGNGDTSYNQKFKGKATLTADKSSSTAYMQLSSLTSEDSAVYYCARSTYYGGDWYFNVWGAGTTVTVSSASTKGPSVFPLAPSSKSTSGGTAALGCLVKDYFPEPVTVSWNSGALTSGVHTFPAVLQSSGLYSLSSVVTVPSSSLGTQTYICNVNHKPSNTKVDKKVEPKSCDKTHTCPPCPAPEHIRGPSVFLFPPKPKDTLMISRTPEVTCVVVDVSHEDPEVKFNWYVDGVEVHNAKTKPREEQYNSTYRVVSVLTVLHQDWLNGKEYKCKVSNKALPAPIEKTISKAKGQPREPQVYTLPPSRDELTKNQVSLTCLVKGFYPSDIAVEWESNGQPENNYKTTPPVLDSDGSFFLYSKLTVDKSRWQQGNVFSCSVMHEALHNHYTQKSLSLSPGK
light: QIVLSQSPAILSASPGEKVTMTCRASSSVSYIHWFQQKPGSSPKPWIYATSNLASGVPVRFSGSGSGTSYSLTISRVEAEDAATYYCQQWTSNPPTFGGGTKLEIKRTVAAPSVFIFPPSDEQLKSGTASVVCLLNNFYPREAKVQWKVDNALQSGNSQESVTEQDSKDSTYSLSSTLTLSKADYEKHKVYACEVTHQGLSSPVTKSFNRGEC
notes: also called 2-20; 1-67
On to B5, for which the “Corrected response (RU)” value in experiment [1] is 10.9 RU; in experiment [2], 13.1 RU; in experiment [4], 22.8 RU. The “Corrected response (RU), Mean” value in experiment [3] worked out at 15.6 RU.

B6: anti-CD20 human IgG1 L234Q/G236R (antibody)
heavy: not shown
light: QIVLSQSPAILSASPGEKVTMTCRASSSVSYIHWFQQKPGSSPKPWIYATSNLASGVPVRFSGSGSGTSYSLTISRVEAEDAATYYCQQWTSNPPTFGGGTKLEIKRTVAAPSVFIFPPSDEQLKSGTASVVCLLNNFYPREAKVQWKVDNALQSGNSQESVTEQDSKDSTYSLSSTLTLSKADYEKHKVYACEVTHQGLSSPVTKSFNRGEC
notes: also called 2-30
On to B6, for which the “Corrected response (RU)” value in experiment [1] stood at 27 RU; in experiment [2], 41.9 RU; in experiment [4] it was 49 RU. Moreover, the “Corrected response (RU), Mean” value in experiment [3] is 39.3 RU.

B7: anti-CD20 human IgG1 L234E/L235V/G236R (antibody)
heavy: QVQLQQPGAELVKPGASVKMSCKASGYTFTSYNMHWVKQTPGRGLEWIGAIYPGNGDTSYNQKFKGKATLTADKSSSTAYMQLSSLTSEDSAVYYCARSTYYGGDWYFNVWGAGTTVTVSSASTKGPSVFPLAPSSKSTSGGTAALGCLVKDYFPEPVTVSWNSGALTSGVHTFPAVLQSSGLYSLSSVVTVPSSSLGTQTYICNVNHKPSNTKVDKKVEPKSCDKTHTCPPCPAPEEVRGPSVFLFPPKPKDTLMISRTPEVTCVVVDVSHEDPEVKFNWYVDGVEVHNAKTKPREEQYNSTYRVVSVLTVLHQDWLNGKEYKCKVSNKALPAPIEKTISKAKGQPREPQVYTLPPSRDELTKNQVSLTCLVKGFYPSDIAVEWESNGQPENNYKTTPPVLDSDGSFFLYSKLTVDKSRWQQGNVFSCSVMHEALHNHYTQKSLSLSPGK
light: QIVLSQSPAILSASPGEKVTMTCRASSSVSYIHWFQQKPGSSPKPWIYATSNLASGVPVRFSGSGSGTSYSLTISRVEAEDAATYYCQQWTSNPPTFGGGTKLEIKRTVAAPSVFIFPPSDEQLKSGTASVVCLLNNFYPREAKVQWKVDNALQSGNSQESVTEQDSKDSTYSLSSTLTLSKADYEKHKVYACEVTHQGLSSPVTKSFNRGEC
notes: also called 2-16; 1-46
For the molecule B7, the “Corrected response (RU)” value in experiment [1] is 5.5 RU; in experiment [2] it was 4.8 RU; in experiment [4], 7.4 RU. For the same molecule, the “Corrected response (RU), Mean” value in experiment [3] came out at 5.9 RU.

B8: anti-CD20 human IgG1 L234G/L235H/G236R (antibody)
heavy: QVQLQQPGAELVKPGASVKMSCKASGYTFTSYNMHWVKQTPGRGLEWIGAIYPGNGDTSYNQKFKGKATLTADKSSSTAYMQLSSLTSEDSAVYYCARSTYYGGDWYFNVWGAGTTVTVSSASTKGPSVFPLAPSSKSTSGGTAALGCLVKDYFPEPVTVSWNSGALTSGVHTFPAVLQSSGLYSLSSVVTVPSSSLGTQTYICNVNHKPSNTKVDKKVEPKSCDKTHTCPPCPAPEGHRGPSVFLFPPKPKDTLMISRTPEVTCVVVDVSHEDPEVKFNWYVDGVEVHNAKTKPREEQYNSTYRVVSVLTVLHQDWLNGKEYKCKVSNKALPAPIEKTISKAKGQPREPQVYTLPPSRDELTKNQVSLTCLVKGFYPSDIAVEWESNGQPENNYKTTPPVLDSDGSFFLYSKLTVDKSRWQQGNVFSCSVMHEALHNHYTQKSLSLSPGK
light: QIVLSQSPAILSASPGEKVTMTCRASSSVSYIHWFQQKPGSSPKPWIYATSNLASGVPVRFSGSGSGTSYSLTISRVEAEDAATYYCQQWTSNPPTFGGGTKLEIKRTVAAPSVFIFPPSDEQLKSGTASVVCLLNNFYPREAKVQWKVDNALQSGNSQESVTEQDSKDSTYSLSSTLTLSKADYEKHKVYACEVTHQGLSSPVTKSFNRGEC
notes: also called 2-17; 1-51
Consider B8, for which the “Corrected response (RU)” value amounted to 4.2 RU in experiment [1], 1.8 RU in experiment [2] and 24.4 RU in experiment [4]. In addition, the “Corrected response (RU), Mean” value in experiment [3] stood at 10.1 RU.
